Results: PMC3702631 (Structure (London, England : 1993), 2013)

Molecular target: the molecule itself
Test: SEC

Row | Protein | stoichiometry N
1 | mouse TBK1 residues 1-657, K38A (GST tag cleaved) (domain or fragment, UniProt Q9WUN2 1-657, looked up) MQSTSNHLWLLSDILGQGATANVFRGRHKKTGDLYAVAVFNNISFLRPVDVQMREFEVLKKLNHKNIVKLFAIEEETTTRHKVLIMEFCPCGSLYTVLEEPSNAYGLPESEFLIVLRDVVGGMNHLRENGIVHRDIKPGNIMRVIGEDGQSVYKLTDFGAARELEDDEQFVSLYGTEEYLHPDMYERAVLRKDHQKKYGATVDLWSVGVTFYHAATGSLPFRPFEGPRRNKEVMYKIITGKPSGAISGVQKAENGPIDWSGDMPLSCSLSQGLQALLTPVLANILEADQEKCWGFDQFFAETSDVLHRMVIHVFSLQHMTAHKIYIHSYNTAAVFHELVYKQTKIVSSNQELIYEGRRLVLELGRLAQHFPKTTEENPIFVTSREQLNTVGLRYEKISLPKIHPRYDLDGDASMAKAVTGVVCYACRTASTLLLYQELMRKGVRWLVELVKDDYNETVHKKTEVVITLDFCIRNIEKTVKVYEKLMKVNLEAAELGEISDIHTKLLRLSSSQGTIESSLQDISSRLSPGGLLADTWAHQEGTHPRDRNVEKLQVLLNCITEIYYQFKKDKAERRLAYNEEQIHKFDKQKLYYHATKAMSHFSEECVRKYEAFKDKSEEWMRKMLHLRKQLLSLTNQCFDIEEEVSKYQDYTNELQET | 2
2 | mouse TBK1 residues 1-657, S172A (GST tag cleaved) (domain or fragment, UniProt Q9WUN2 1-657, looked up) MQSTSNHLWLLSDILGQGATANVFRGRHKKTGDLYAVKVFNNISFLRPVDVQMREFEVLKKLNHKNIVKLFAIEEETTTRHKVLIMEFCPCGSLYTVLEEPSNAYGLPESEFLIVLRDVVGGMNHLRENGIVHRDIKPGNIMRVIGEDGQSVYKLTDFGAARELEDDEQFVALYGTEEYLHPDMYERAVLRKDHQKKYGATVDLWSVGVTFYHAATGSLPFRPFEGPRRNKEVMYKIITGKPSGAISGVQKAENGPIDWSGDMPLSCSLSQGLQALLTPVLANILEADQEKCWGFDQFFAETSDVLHRMVIHVFSLQHMTAHKIYIHSYNTAAVFHELVYKQTKIVSSNQELIYEGRRLVLELGRLAQHFPKTTEENPIFVTSREQLNTVGLRYEKISLPKIHPRYDLDGDASMAKAVTGVVCYACRTASTLLLYQELMRKGVRWLVELVKDDYNETVHKKTEVVITLDFCIRNIEKTVKVYEKLMKVNLEAAELGEISDIHTKLLRLSSSQGTIESSLQDISSRLSPGGLLADTWAHQEGTHPRDRNVEKLQVLLNCITEIYYQFKKDKAERRLAYNEEQIHKFDKQKLYYHATKAMSHFSEECVRKYEAFKDKSEEWMRKMLHLRKQLLSLTNQCFDIEEEVSKYQDYTNELQET | 2
